Laboratory results reported in paper PMC3050068.

Tests used:
[1] = test system: O=C(O)[C@H]1O[C@H](OP(=O)(O)OP(=O)(O)OC[C@H]2O[C@@H](n3ccc(=O)[nH]c3=O)[C@H](O)[C@@H]2O)[C@H](O)[C@@H](O)[C@@H]1O; test: purified protein; settings: NAD+ as co-substrate, pH 8.5, 25°C, without WlbC
[2] = target: WlbA from Chromobacterium violaceum (Chromobacterium violaceum); test: crystal structure
[3] = target: WlbA from Chromobacterium violaceum (Chromobacterium violaceum); test: AUC
[4] = test system: O=C(O)[C@H]1O[C@H](OP(=O)(O)OP(=O)(O)OC[C@H]2O[C@@H](n3ccc(=O)[nH]c3=O)[C@H](O)[C@@H]2O)[C@H](O)[C@@H](O)[C@@H]1O; test: purified protein; assay type: biochemical, Chromobacterium violaceum; settings: NAD+ as co-substrate, pH 8.5 (50 mM HEPPS), 25°C, without WlbC

B. pertussis WlbA (Bordetella pertussis Tohama I)
Km [1]: 2.05 ± 0.21 mM
kcat [1]: 0.0021 ± 0.0001 s⁻¹
kcat/Km [1]: 1 M⁻¹ s⁻¹

WlbA from Chromobacterium violaceum (enzyme)
stoichiometry N [2]: 8
stoichiometry N [3]: 8

C. violaceum WlbA (Chromobacterium violaceum ATCC 12472)
Km [4]: 0.20 ± 0.02 mM
kcat [4]: 0.00015 ± 0.00001 s⁻¹
kcat/Km [4]: 0.75 M⁻¹ s⁻¹
